Measurements taken from patent US7815907B2, “Antibodies to insulin-like growth factor I receptor” (Amgen Fremont Inc., priority 2001, dated 2010).

Experiments:
IGF-IR [1] = target: T1, IGF-IR (Homo sapiens, UniProt P08069); experiment: IGF-IR levels in 3T3/IGF-IR tumors by western blot after antibody and/or adriamycin; type: in vivo, nude mice; set-up: expressed in transfected cells; host or cells: NIH-3T3 (mouse fibroblasts); conditions: 72 hours after single 250 μg 2.13.2 i.p. or 7.5 mg/kg adriamycin i.v.
Description: Tumors were induced in nude mice as described in Example IX. Mice with established subcutaneous tumors of approximately 400 mm^3 were treated with a single injection of 250 μg 2.13.2 antibody (i.p.) or with 7.5 mg/kg adriamycin (i.v.), either as single agents or in combination, as described in Example IX. 72 hours after administration of the agents, tumors were extracted as described in Example VIII, and equal amounts of the tumor extracts were subjected to sodium […] polyacrylamide gel electrophoresis (SDS PAGE) and western blot analysis using the anti-IGF-IR antibody SC-713 (Santa Cruz). […] Each lane represents equal amounts of protein from individual tumors from individual mice.

[2] = target: T2, extracellular domain of IGF-IR (Homo sapiens, UniProt P08069); experiment: BIAcore affinity measurement, Protocol 1; type: binding; conditions: BIAcore 3000; antibody captured on protein-A, IGF-IR extracellular domain injected
T2 construct: Different concentrations of the extracellular domain of IGF-IR were injected on the sensorchip
Description: We performed affinity measures of purified antibodies by surface plasmon resonance using the BIAcore 3000 instrument, following the manufacturer's protocols.
To perform kinetic analyses, protein-A was immobilized on the sensorchip surfaces of the BIAcore. The sensorchip was then used to capture the anti-IGF-IR antibodies of the present invention. Different concentrations of the extracellular domain of IGF-IR were injected on the sensorchip and the binding and dissociation kinetics of the interactions between the anti-IGF-IR antibodies and the extracellular domain of IGF-IR were analyzed. The data were evaluated with global fit Langmuir 1:1, using baseline drift models available on the BIAevaluation software provided by BIAcore.

[3] = target: T3, extracellular domain (ECD) of IGF-IR (Homo sapiens, UniProt P08069); experiment: BIAcore competition (epitope mapping); type: binding; conditions: first antibody bound under saturating conditions
T3 construct: Different concentrations of the extracellular domain of IGF-IR were injected on the sensorchip
Text: We conducted BIAcore competition studies to determine whether the antibodies of this invention bind to the same or distinct site on the IGF-IR molecule. We bound the extracellular domain (ECD) of IGF-IR to a BIAcore sensorchip as described above in Example II. We bound a first antibody of the invention to this sensorchip-bound IGF-IR under saturating conditions. We then measured the ability of subsequent secondary antibodies of the invention to compete with the primary antibody for binding to IGF-IR.

IGF-IR from the marmoset = experiment: Species crossreactivity by immunoprecipitation/Western blot; type: binding; conditions: immunoprecipitation, antibody 1 μg/ml
Description: (§1) To perform immunoprecipitation experiments, we plated cells in DMEM high glucose media supplemented with L-glutamine (0.29 mg/ml), 10% heat-inactivated FBS, and 500 μg/ml each of geneticin, penicillin and streptomycin to 50% confluence in T25 flasks. We then added 100 μl of an antibody of the invention in Hank's buffered saline solution (HBSS; Gibco BRL) at a concentration of 1 μg/ml. We incubated the plates for 30 minutes at 37° C. in an incubator and then stimulated the cells with IGF-I at 100 ng/ml for 10 minutes at room temperature. We lysed the cells in RIPA buffer (Harlow and Lane, supra) and immunoprecipitated IGF-IR with 2 μg of pan-specific SC-713 anti-IGF-IR antibody (Santa Cruz) plus protein A agarose beads for 1 hour at 4° C. We pelleted the beads and wash three times with PBS/T (PBS+0.1% Tween-20) and then boiled the beads in 40 μl Laemmli buffer containing 5% βME.
(§2) The samples prepared as described above were then analyzed by Western blot. We loaded 12 μl of each sample per lane on 4-10% gradient Novex™ gels run with 1×MES buffer (Novex™). Gels were run at 150V for 1 hour or at 200V for approximately 30 minutes. We then transferred the gel to a membrane in Novex™ transfer buffer with 10% methanol either overnight at 100 mA or for 1-1.5 hours at 250 mA. We then allowed the membrane to dry completely and blocked at room temperature with TBS (Tris-buffered saline pH 8.0) containing Superblock (Pierce Chemical Co.). We added the IGF-IR blotting antibody SC713 (Santa Cruz) to detect immunoprecipitated IGF-IR.

Rhesus IGF-IR = experiment: as above; type: binding; conditions: immunoprecipitation, antibody 1 μg/ml
Description: as §1, §2

canine IGF-IR = experiment: as above; type: binding; conditions: immunoprecipitation, antibody 1 μg/ml
Description: as §1, §2

guinea pig IGF-IR = experiment: as above; type: binding; conditions: immunoprecipitation, antibody 1 μg/ml
Description: as §1, §2

rabbit IGF-IR = experiment: as above; type: binding; conditions: immunoprecipitation, antibody 1 μg/ml
Description: as §1, §2

COS7 IGF-IR = experiment: as above; type: binding, old world monkey; conditions: immunoprecipitation, antibody 1 μg/ml
Description: as §1
(§3) The samples prepared as described above were then analyzed by Western blot. We loaded 12 μl of each sample per lane on 4-10% gradient Novex™ gels run with 1×MES buffer (Novex™). Gels were run at 150V for 1 hour or at 200V for approximately 30 minutes. We then transferred the gel to a membrane in Novex™ transfer buffer with 10% methanol either overnight at 100 mA or for 1-1.5 hours at 250 mA. […]

IGF-IR [4] = target: T1, IGF-IR; experiment: as above; type: binding; set-up: on cells from a variety of animals; endogenous in cells; conditions: immunoprecipitation, antibody 1 μg/ml
Description: as §1, §3

Which “IGF-IR levels in tumors, single agent” value (IGF-IR [1]) does the source give for `COc1cccc2c1C(=O)c1c(O)c3c(c(O)c1C2=O)C[C@@](O)(C(=O)CO)C[C@@H]3O[C@H]1C[C@H](N)[C@H](O)[C@H](C)O1` [adriamycin, reference compound] here?
Its value is “little effect on IGF-IR levels”.

B1: 2.14.3: human IgG2κ monoclonal antibody specific for IGF-IR from hybridoma 2.14.3 (ATCC PTA-2790) (antibody, V domains shown)
VH: GPGLVKPSETLSLTCTVSGGSISNYYWSWIRQPAGKGLEWIGRIYTSGSPNYNPSLKSRVTMSVDTSKNQFSLKLNSVTAADTAVYYCAVTIFGVVIIFDYWGQGTLVTVSS
VL: SSLSASVGDRVTFTCRASQDIRRDLGWYQQKPGKAPKRLIYAASRLQSGVPSRFSGSGSGTEFTLTISSLQPEDFATYYCLQHNNYPRTFGQGTEVEIIR
Which Kd [2] does the source give for B1 here?
The Kd was 0.641 nM.

What about the “binding site on IGF-IR (competition between antibodies)” value [3] of the same molecule?
The value was “bind to sites on IGF-IR that are different”.

B2: 4.17.3: human IgG2κ monoclonal antibody specific for IGF-IR from hybridoma 4.17.3 (ATCC PTA-2793); named as activating antibody (antibody, V domains shown)
VH: PGLVKPSETLSLTCTVSGGSISSYYWSWIRQPPGKGLEWIGYIYYSGSTNYNPSLKSRVTISVDTSKNQFSLKLSSVTAADTAVYYCARTYSSSFYYYGMDVWGQGTTVTVSS
VL: GDRVTITCRASQSISTFLNWYQQKPGKAPKLLIHVASSLQGGVPSRFSGSGSGTDFTLTISSLQPEDFATYYCQQSYNAPLTFGGGTKVEIK
Which Kd [2] does the source give for B2 here?
The Kd was 13 nM.

B3: 2.12.1: human IgG2κ monoclonal antibody specific for IGF-IR from hybridoma 2.12.1 (ATCC PTA-2792) (antibody)
heavy: QAQLVESGGGLVKPGGSLRLSCAASGFTFSDYYMSWIRQAPGKGLEWVSYISSSGSTRDYADSVKGRFTISRDNAKNSLYLQMNSLRAEDTAVYYCVRDGVETTFYYYYYGMDVWGQGTTVTVSSASTKGPSVFPLAPCSRSTSESTAALGCLVKDYFPEPVTVSWNSGALTSGVHTFPAVLQSSGLYSLSSVVTVPSSNFGTQTYTCNVDHKPSNTKVDKTVERKCCVECPPCPAPPVAGPSVFLFPPKPKDTLMISRTPEVTCVVVDVSHEDPEVQFNWYVDGVEVHNAKTKPREEQFNSTFRVVSVLTVVHQDWLNGKEYKCKVSNKGLPAPIEKTISKTKGQPREPQVYTLPPSREEMTKNQVSLTCLVKGFYPSDIAVEWESNGQPENNYKTTPPMLDSDGSFFLYSKLTVDKSRWQQGNVFSCSVMHEALHNHYTQKSLSLSPGK
light: DIQMTQSPSSLSASVGDRVTFTCRASQDIRRDLGWYQQKPGKAPKRLIYAASRLQSGVPSRFSGSGSGTEFTLTISSLQPEDFATYYCLQHNNYPRTFGQGTEVEIIRTVAAPSVFIFPPSDEQLKSGTASVVCLLNNFYPREAKVQWKVDNALQSGNSQESVTEQDSKDSTYSLSSTLTLSKADYEKHKVYACEVTHQGLSSPVTKSFNRGEC
B3 was tested. Which Kd [2] did it give?
Its Kd is 7.37 nM.

And the “binding to marmoset IGF-IR” value (IGF-IR from the marmoset)?
Its value is “not”.

What about the “binding to Rhesus IGF-IR” value (Rhesus IGF-IR) of the same molecule?
Its value is “able to bind”.

What about the “binding to canine IGF-IR” value (canine IGF-IR) of the same molecule?
The value was “not”.

What about the “binding to guinea pig IGF-IR” value (guinea pig IGF-IR) of the same molecule?
Its value is “not”.

What about the “binding to rabbit IGF-IR” value (rabbit IGF-IR) of the same molecule?
The value was “not”.

And the “binding to COS7 IGF-IR” value (COS7 IGF-IR)?
The value was “able to bind”.

What about the “binding to human IGF-IR” value (IGF-IR [4]) of the same molecule?
Its value is “able to bind”.
